The text below walks through data of publication PMC9312469.

By stoichiometry N is commonly meant a count of units in the complex or per binding partner.

The target in experiment [1] is PH-YFP (isolated PLCδ1 PH domain linked to a yellow fluorescent protein variant that lacks the A206K mutation) (UniProt P51178). The experiment in a line: fluorescence fluctuation spectroscopy (photon counting histogram); PH-YFP bound to POPC:PI(4,5)P2 (95:5) GUVs, in the presence of Ca2+ (20, 50 and 100 μM taken together, on average); two-brightness population model.

Experiment [2] shares this target. The experiment in a line: fluorescence fluctuation spectroscopy (photon counting histogram); PH-YFP bound to POPC:PI(4,5)P2 (95:5) GUVs, 100 μM Ca2+; two-brightness population model.
For experiment [3] the target is unchanged. Nature of the experiment: fluorescence fluctuation spectroscopy (photon counting histogram); PH-YFP bound to POPC:PI(4,5)P2 (95:5) GUVs, 20 μM Ca2+; two-brightness population model.
The target is the same in experiment [4]. The experiment in a line: fluorescence fluctuation spectroscopy (photon counting histogram); PH-YFP bound to POPC:PI(4,5)P2 (95:5) GUVs, 5 mM EDTA (0 μM Ca2+); two-brightness population model.
The target is the same in experiment [5]. The experiment in a line: fluorescence fluctuation spectroscopy (photon counting histogram); PH-YFP bound to POPC:PI(4,5)P2 (95:5) GUVs, 50 μM Ca2+; two-brightness population model.

Take “PH-YFP (isolated PLCδ1 PH domain linked to a yellow fluorescent protein variant that lacks the A206K mutation) (from UniProt P51178 21-130)”: in experiment [1], the fraction of particles in the second (oligomeric) population is below 5%. For the same substance, in experiment [2], the F1 (Monomeric Population), fraction weighed by brightness worked out at 86.5% and the F2 (Oligomeric Population), fraction weighed by brightness was 13.5%. Moreover, in experiment [3], the F1 (Monomeric Population), fraction weighed by brightness worked out at 99.3% and the F2 (Oligomeric Population), fraction weighed by brightness is 0.7%. In experiment [4], this substance displayed an F1 (Monomeric Population), fraction weighed by brightness of 71.3%; an F2 (Oligomeric Population), fraction weighed by brightness of 28.7%; a brightness of the second population relative to the lower brightness (monomer) component of 2.3 fold; a stoichiometry N of 2. For the same substance, in experiment [5], the F1 (Monomeric Population), fraction weighed by brightness worked out at 82.5% and the F2 (Oligomeric Population), fraction weighed by brightness is 17.5%.
